Data from patent US20240327530A1 (ICHNOS SCIENCES, published 2024).

Assays:
[1] = target: T1, Recombinant cynomolgus monkey IL-1RAP-ECD(S21-E359)-avi-his protein (cynomolgus monkey, UniProt P59822 21-359 (rhesus entry)); experiment: SPR, IgG1 LALA captured by anti-human Fc, cyno IL-1RAP-avi-his as analyte, 1:1 fit
T1 construct: also called cyno IL-1RAP-ECD-Avi-His; recombinant cynomolgus monkey IL-1RAP-avi-his protein
T1 sequence: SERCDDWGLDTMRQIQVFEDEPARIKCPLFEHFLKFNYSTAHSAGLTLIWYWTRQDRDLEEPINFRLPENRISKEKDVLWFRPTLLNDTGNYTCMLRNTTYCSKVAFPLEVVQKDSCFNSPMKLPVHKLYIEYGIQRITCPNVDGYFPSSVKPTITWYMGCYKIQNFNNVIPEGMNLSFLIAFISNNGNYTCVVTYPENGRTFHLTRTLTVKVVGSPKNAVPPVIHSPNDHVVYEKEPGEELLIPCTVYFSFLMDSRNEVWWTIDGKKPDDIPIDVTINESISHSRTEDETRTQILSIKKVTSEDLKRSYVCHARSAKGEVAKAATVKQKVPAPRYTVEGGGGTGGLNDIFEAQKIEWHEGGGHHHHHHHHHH
Description: Surface plasmon resonance (SPR) was used to measure the binding affinities of the human IgG1 LALA molecules for human and cynomolgus monkey IL-1RAP. Affinities were measured on a BIACORE™ T200 instrument (BIACORE™, GE […]®) at 25° C. and analyzed with the BIACORE™ T200 Evaluation Software (v3.1). Measurements were performed on Series S CM5 sensor chips (BIACORE™ T200, BIACORE™, GE […]®, catalog no. BR100530) coupled with anti-human IgG Fc (BIACORE™, GE […]®, catalog no. BR100839) using a commercial amine coupling kit (BIACORE™, GE […]®, catalog no. BR100050). SPR measurements were performed with recombinant human IL-1RAP-avi-his protein produced in house (SEQ ID NO. 1) or recombinant cynomolgus monkey IL-1RAP-avi-his protein produced in house (SEQ ID NO. 2). The affinities to human and cynomolgus monkey IL-1RAP were assessed by immobilizing anti-IL-1RAP IgG1 LALA molecules and using IL-1RAP proteins as analyte. Around 150 RU of human IgG1 LALA were captured on fc2 of a Series S CM5 sensor chip coupled with anti-human IgG Fc. Recombinant human IL-1RAP-avi-his protein or recombinant cynomolgus monkey IL-1RAP-avi-his protein was injected in multi cycle kinetic at different concentrations ranging from 0.14 to 100 nM, in HBS-EP+ buffer (BIACORE™, GE […]®, catalog no. BR100669) at a flow rate of 30 μl/min for 3 min on fc1 and fc2 (fc1 being used as reference). Dissociation was monitored for 12 min. After each cycle, the surface was regenerated with 60 μl of regeneration solution provided with anti-human IgG Fc capture kit (BIACORE™, GE […]®, catalog no. BR100839). Experimental data were processed using the 1:1 Langmuir kinetic fitting model. Measurements included zero-concentration samples for referencing. Chi², U- and residual values were used to evaluate the quality of a fit between the experimental data and individual binding models.

[2] = target: T1, Recombinant cynomolgus monkey …; experiment: SPR, IgG1 LALA captured on anti-human IgG Fc CM5 chip, cynomolgus monkey IL-1RAP-avi-his as analyte in a concentration series, 1:1 fit, one representative replicate
Description: Anti-IL-1RAP-C8-RecC-ES IgG1 LALA was immobilized on a Series S CM5 sensor CHIP coupled with anti-human IgG Fc. Human IL-1RAP-avi-his or cynomolgus monkey IL-1RAP-avi-his was injected over immobilized IgG1 LALA in concentration series in HBS-EP+ buffer. One representative replicate for human IL-1RAP and cynomolgus monkey IL-1RAP is presented. Plots are showing data expressed as number of resonance units (abbreviated RU; Y axis) vs. time (s, X axis). Dotted lines represent the measured data while solid lines represent simulated fits. KD: equilibrium dissociation constant; Ka: association constant; Kd: dissociation constant.
Surface plasmon resonance (SPR) was used to measure the binding affinities of the human IgG1 LALA molecules for human and cynomolgus monkey IL-1RAP. Affinities were measured on a BIACORE™ T200 instrument (BIACORE™, GE […]®) at 25° C. and analyzed with the BIACORE™ T200 Evaluation Software (v3.1). Measurements were performed on Series S CM5 sensor chips (BIACORE™ T200, BIACORE™, GE […]®, catalog no. BR100530) coupled with anti-human IgG Fc (BIACORE™, GE […]®, catalog no. BR100839) using a commercial amine coupling kit (BIACORE™, GE […]®, catalog no. BR100050). SPR measurements were performed with recombinant human IL-1RAP-avi-his protein produced in house (SEQ ID NO. 1) or recombinant cynomolgus monkey IL-1RAP-avi-his protein produced in house (SEQ ID NO. 2). The affinities to human and cynomolgus monkey IL-1RAP were assessed by immobilizing anti-IL-1RAP IgG1 LALA molecules and using IL-1RAP proteins as analyte. Around 150 RU of human IgG1 LALA were captured on fc2 of a Series S CM5 sensor chip coupled with anti-human IgG Fc. Recombinant human IL-1RAP-avi-his protein or recombinant cynomolgus monkey IL-1RAP-avi-his protein was injected in multi cycle kinetic at different concentrations ranging from 0.14 to 100 nM, in HBS-EP+ buffer (BIACORE™, GE […]®, catalog no. BR100669) at a flow rate of 30 μl/min for 3 min on fc1 and fc2 (fc1 being used as reference). Dissociation was monitored for 12 min.

B1: Anti-IL-1RAP-C8-RecC-ES-IgG1LALA (antibody, V domains shown)
VH: QVQLVQSGAEVKKPGSSVKVSCKASGSPAEPYAIQWVRQAPGQGLEWMGYIIPSLGGYDYAQKFQGRVTITADESTSTAYMELSSLRSEDTAVYYCARGQTLYESGRQFDIWGQGTLVTVSS
VL: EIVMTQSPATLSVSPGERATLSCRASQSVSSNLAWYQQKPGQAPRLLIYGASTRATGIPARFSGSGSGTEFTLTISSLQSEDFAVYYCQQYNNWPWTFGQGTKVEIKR
notes: also called ISB 880-C8-recC-ES
Work on B1 yielded a Kd [1] of 0.306 nM, a koff [1] of 0.000212 s⁻¹ and a kon [1] of 692000 M⁻¹ s⁻¹. The Kd [2] was 0.307 nM, the koff [2] was 0.000196 s⁻¹ and the kon [2] was 638000 M⁻¹ s⁻¹.
